B1: IL13RA2-B (antigenic peptide FLPFGFILV, SEQ ID No 31) (peptide)
peptide: FLPFGFILV
notes: also called candidate peptide; IL13RA2-B pAg

target: T1, HLA-A*0201 molecule expressed by T2 cells (human); test: T2 cell HLA-A*0201 surface expression assay, flow cytometry; relative affinity = peptide concentration inducing 20% HLA-A*0201 expression / that of reference peptide HIV pol 589-597
T1 construct: MHC class I molecule on T2 cells
Experimental: T2 cells (2.10⁵ cells per well) were incubated with decreasing conceontrations of peptides from 100 μM to 0.1 μM in a AIMV medium supplemented with 100 ng/μl of human β2 m at 37° C. for 16 hours. Cells were then washed two times and marked with the anti-HLA-A2 antibody coupled to PE (clone BB7.2, BD Pharmagen).
The experimental protocol, materials and methods correspond to those outlined in Example 3, with the only difference that the above mentioned antigenic peptides were used.

In vitro binding affinity	Binder
2.22	ILPFGFILA [peptide 1I9A]
0.49	B1
2.62	FLPFGFILM [peptide 1F9M]
3.06	ALPFGFILV (also called IL13RA2-ST) [peptide 1A9V (Eguchi et al. 2006)]
